Here are results for two sequences from patent US10526691B2, “Functionalized surface” (priority 2015, dated 2020).

One series deals with S. epidemridis. The series can be described thus: Crystal violet absorbance of bacteria adhering to peptide-coated nitrided steel. The following applies: overnight at 37° C., FIG. 14. The series is classed as cell-based. The procedure:
Nitrided steel was incubated with a solution of an antimicrobial peptide having the sequence RRIYGRGYIRR (SEQ ID NO: 1) (25 µl, 10 mg/ml/cm^2) at room temperature for 1 hour with a HBTU/DIEA catalyst in DMF to produce a coated surface.
Coated surfaces were inoculated with […] bacterial cells (S. epidemridis) and incubated overnight at 37° C. The surfaces were then washed with PBS and stained using Crystal Violet ([…]) for 15 minutes at room temperature. The surfaces were washed three times to remove any residual stain and the stain lifted in 70% ethanol. The absorbance of crystal violet was read at 560 nm to quantify the level of stain (FIG. 14). The amount of stain is directly related to the number of bacteria.

A short description of series [1]: Peptide fluorescence on nitrided titanium after environmental treatments. The series is classed as physicochemical. The following applies: FIG. 9. The procedure:
The durability of immobilized peptide on the surface of nitrided titanium was assessed following different environmental treatments, as shown in FIG. 9. […] (SEQ ID NO: 5)-coated titanium was incubated in control PBS solution, trypsin, Dettola or treated with sandpaper at room temperature for a suitable time which depended on the treatment used. The mean pixel number above the threshold was then assessed by fluorescence microscopy. Importantly, peptide fluorescence was retained after any of the environmental treatments, indicating a strong and durable interaction between peptide and metal.

Series [2] concerns bacteria. Kind of series: Peptide-coated nitrided steel surfaces on door handles, city hospital Outpatients area, three months. The procedure: A further study was carried out in the Outpatients area of a city hospital. This is a very busy area of the hospital and sees a high volume of patient and staff traffic. The peptide used was […] (SEQ ID NO: 5), and the coated steel surfaces were prepared as in Example 8.
Control and coated surfaces were placed on door handles in the Outpatients area. […] We saw 1 colony growth from the surfaces, which is believed to be due to the frequency of use of the surfaces. Surfaces were touched on average every 2 minutes during an observation period and, in a lot of cases, the surfaces had been touched immediately prior to the swabbing being undertaken.

A short description of series [3]: Peptide attachment to nitrided / nitrocarburised steel types, fluorescence microscopy pixel count. The following applies: FIG. 1. The format is physicochemical. The procedure: Nitrided metal surfaces were incubated overnight at room temperature on a rotamixer in a solution comprising a 9:0.5:0.5 ratio of dimethylformamide (DMF), DIPIA and HBTU, respectively, and 0.5 µg/ml of the peptide […] (SEQ ID NO: 5) tagged with a fluorescent label. Following incubation, surfaces were washed with DMF, which was replenished every 5 minutes for 50 minutes, followed by saline, which was also replenished every 5 minutes for 50 minutes, before being left to air dry.
(§1) The peptide percentage surface coverage of the metal was assessed by the use of fluorescent peptides and microscopy. Peptide coated metal was viewed by a fluorescence microscope at an exposure of 1.55 s using a 10× objective. Nine images for each 1 cm^2 piece of steel were obtained. Images were analysed using ImageJ software (NIH, MD, USA). The threshold from control images, obtained from nitrided metal which had not been treated with peptide, was adjusted until all of the pixels were removed, leaving an image with no staining. This acted as a control baseline. Images from corresponding experimental samples were then adjusted to this threshold value and the residual pixel count then recorded as a measure of peptide attachment.

Series [4] relates to bacteria. Kind of series: Long term study of peptide-coated surfaces on taps in a medical school, one year. The following applies: taps in toilets of a medical school; after 12 months; FIG. 13. From the text: The peptide-coated surfaces described in Examples 8 and 9 were installed in a medical school. The surfaces were placed on taps in the toilets and were swabbed over a period of one year.

Series [5] is described as follows: Peptide fluorescence on nitrided titanium over 1 to 4 weeks in PBS. The format is physicochemical. The following applies: FIG. 8; for change of pixel number: nitrided titanium in PBS. As for the experimental part: Having established the durability and the efficacy of immobilized peptides on a steel surface, the efficacy of peptides immobilized on a titanium surface was assessed. Nitrided titanium was prepared by Metaltech. […] (SEQ ID NO: 5), tagged with a fluorescent label, was immobilised on the surface of the nitrided titanium as described previously. Peptide-coated samples were incubated in PBS solution at room temperature for between 1 and 4 weeks, following which fluorescence, and the resulting pixel number above threshold, was assessed as described previously by fluorescence microscopy.

Series [6] deals with bacteria. Kind of series: Bacterial growth (absorbance) on peptide-coated nitrided titanium used as growth plate. The series is classed as cell-based. Conditions: antimicrobial-peptide-coated nitrided titanium, in comparison to the controls; FIG. 10. The procedure:
Nitrided titanium was prepared by Metaltech, and coated as described previously with the peptide […] (SEQ ID NO: 5), aside from a control (peptide) group in which nitrided titanium was coated with a non-antimicrobial peptide, and a control (titanium) group where the nitrided titanium remained uncoated. A positive control group, consisting of uncoated tissue culture plastic, was also used. The surfaces were washed and used as growth plates for bacteria. One group of antimicrobial peptide-coated titanium surfaces was immediately used as a growth plate for bacteria (treatment (immediate)). Another antimicrobial peptide-coated titanium group (treatment (environment)) was treated with PBS, followed by trypsin/EDTA, followed by Dettol followed by sandpapering, following which the surfaces were used as a growth plate for bacteria. The Absorbance relates to the bacteria number growing on the surface after incubation (FIG. 10). Low values indicate no bacterial growth, while high values indicate high numbers of bacteria.

In series [7] the test system is bacteria. The series can be described thus: Peptide-coated nitrided steel surfaces in a hospital unit over three months, bacteria counts. The procedure:
A nitrided steel surface was coated with the peptide […] (SEQ ID NO: 5). The surface was dip-coated in a mixture of the peptide (3 µl of 10 mg/ml peptide per cm^2 of metal) and a catalyst (HBTU/DIEA mix) which adhered the peptide to the surface. Coating was carried out at room temperature for 12 hours.
Coated and uncoated steel surfaces were installed in a hospital unit, in the Accident and Emergency room, Operating Theatre, Ward 1 and the associated bathroom. Control surfaces and coated surfaces were situated in identical locations and tested over three months. After use the samples and data collected were sent to the University of Birmingham for analysis.

The subject of series [8] is colony forming unit (CFU) counts. The series can be described thus: CFU count on peptide-coated versus control nitrided α2 steel attached to areas with high predicted CFU counts. Conditions: α2 steel coated with unlabelled peptide; swabs on days 1, 2, 7, 8 and 9; all areas tested; FIG. 7. As for the experimental part: α2 steel was prepared using a standard nitriding process and coated with 1 µg/ml of the unlabelled peptide […] (SEQ ID NO: 5) using the method as described in Example 1. Peptide coated, or control uncoated steel samples were then attached to areas where high colony forming unit (CFU) counts were predicted (e.g. toilet seat, kitchen tap etc.). Cotton wool buds, dipped in saline, were used to swab surfaces on days 1, 2, 7, 8 and 9. Buds were placed in sterelin tubes and used to inoculate blood agar plates, following which plates were incubated for 48 hours at 37° C. before CFU counts were taken.

Series [9] can be described thus: Peptide coverage of nitrided steel after environmental, cleaning or coating treatments, fluorescence microscopy. The series is classed as physicochemical. As for the experimental part:
as §1
Mild steel was nitrided using a standard process for 19 hours at 440° C. by Metaltech. The peptide […] tagged with a fluorescent label was immobilized on the surface of the nitrided steel as described in Example 1. Peptide-coated steel was incubated in the appropriate environmental treatment at room temperature for a suitable time which depended on the treatment used. Samples were washed with saline following treatment and peptide attachment analysed by microscopy as detailed in Example 1.
Mild steel was nitrided using a standard process by Metaltech. The peptide […] (SEQ ID NO: 5) tagged with a fluorescent label was immobilized on the surface of the nitrided steel as described in Example 1. Peptide-coated steel was incubated in the appropriate environmental treatment at room temperature for a suitable time which depended on the treatment used. Samples were washed with saline following treatment and peptide attachment analysed by microscopy as detailed in Example 1.
Steel was nitrided or plasma ferretic nitrocarburised as described in Example 1, after which the peptide […] (SEQ ID NO: 5), tagged with a fluorescent label was immobilised on the nitrided surface as described in Example 1.
Peptide-coated alpha steel samples were incubated in various standard cleaning or coating treatments at room temperature, for a suitable time which depended on the treatment used, in order to determine if any of these treatments affected the attachment of the peptide to the steel. […] This decrease may be partly accounted for by loss of fluorescence over the period of 3 weeks as the steel pieces were repeatedly exposed to light.

Ends that are not written are not given here. A value given as a limit tells only on which side of the number the result lay.

On to “RRIYGRGYIRR (RRYIGRGYIRR) [antimicrobial peptide coated on nitrided steel]”, for which the “number of bacteria adhering to the surface (crystal violet absorbance at 560 nm)” value in the series on S. epidemridis is reported as “significantly reduce the number of bacteria adhering to the surface”.

As to “RRRRRRGALAGRRRRRRGALAG (also: fluorescent tag, immobilized on steel or titanium) [antimicrobial peptide immobilized covalently on nitrided steel or titanium; fluorescently tagged in the attachment studies]”, the “peptide fluorescence after treatment” value is on record as “remained similar” in series [1] (control solution, trypsin or Dettol) and “retained, albeit at a lower level” in series [1] (mechanical agitation using sandpaper). For the same sequence, the “percentage effectiveness of the coated surfaces compared to control surfaces” value is not below 99% in the series with bacteria [2] (city hospital setting, all time points over three months, FIG. 12B) and not below 99% with bacteria [7] (hospital setting, all time points over three months, FIG. 11B). Further, in the series on bacteria [2] (door handles, Outpatients area of a city hospital, FIG. 12), the “levels of bacteria on peptide-coated surfaces” value turned out to be 1 cfu. Moreover, the effectiveness entry in the series with bacteria [2] (door handles, Outpatients area, Example 9) is on record as “greater than 99%”. For the same sequence, the “preferential binding to steel type” value in [3] (comparison of eight steel types) was “highest binding affinity for alpha steel types”. The “mean pixel counts (peptide attachment)” value in [3] (eight steel types (α1-3, β1-3, P1-P2), fluorescently tagged peptide) is listed as “above 0”. Also, the “inhibition of bacterial growth on treated surfaces” value in the series on bacteria [4] is listed as “inhibition of bacterial growth was still observed”. The “change of pixel number” value in series [5] (after 2 weeks) is “remained relatively constant”; in series [5] (between 1 and 2 weeks), “decreased considerably”. The pixels above threshold entry in [5] (nitrided titanium, after 1, 2, 3 and 4 weeks in PBS solution) is given as “Pixels were observed above the threshold”. The “absorbance (bacteria number growing on the surface)” value with bacteria [6] was “very low absorbance values”. For the same sequence, the “inhibition of bacterial growth on coated surfaces” value with bacteria [7] (hospital unit, three months, FIG. 11) is listed as “complete inhibition of bacterial growth”. Moreover, the “colony forming units on the one coated plate that showed growth” value in the series on bacteria [7] (month 2, believed due to contamination during swabbing or plating) was “one”. The “mean CFU count, peptide coated versus control” value in series [8] was “consistently higher mean CFU count on control pieces of metal”. The “difference in pixel counts between treatments” value in series [9] (P2 steel group as printed in the beta steel paragraph, FIG. 5, H=13.7, p=0.033) is listed as “significant difference”; in [9] (α1 steels, FIG. 4, H=19.4 p=0.004) it was “statistically significant difference”; in series [9] (α2 steels, FIG. 4, H=12.4, p=0.053), “no significant difference”; in series [9] (α3 steels, FIG. 4, H=12.8, p=0.047) it was “statistically significant difference”; in series [9] (β1 steels, FIG. 5, H=10.6, p=0.103), “no significant difference”; in series [9] (β steels (number not given), FIG. 5, H=10.9, p=0.09) it was “no significant difference”. The “differences in pixel number between treatments” value was “significant” in series [9] (PlasOx 1 steel, FIG. 6, H=15.4 p=0.017) and “significant” in series [9] (PlasOx 2 steel, FIG. 6, H=12.7 p=0.048). Besides, in series [9] (following environmental treatment, in most instances, FIG. 6), the “pixel number, PlasOx 2 steel versus PlasOx 1 steel” value is given as “higher for PlasOx 2 steel than PlasOx 1 steel”. Also, the “peptide coverage of nitrided steel before and after environmental treatments” value in series [9] (mild steel nitrided 19 hours at 440° C., room temperature, FIG. 2) is “remains at a similar level”. The “peptide coverage of nitrided steel following environmental treatment” value in series [9] (nitrided mild steel, room temperature, FIG. 3) is reported as “remains constant”.
